Among the data in article PMC11672532 are binding signal (fold (A549 / HeLa fluorescence)) values, retold here.

In this series the target is c-Met ((A549 lung cancer cells)) (UniProt P08581). Description: flow cytometry on cells. Particulars: 5' and 3' cholesterol on ASO strand; Intact A549 or HeLa cells, FAM-labeled DNA, flow cytometry (30 min in Fig S8); binding buffer and temperature not given in the material. A general note: A flow cytometer gives signals particle by particle.
Chain of c-Met ((A549 lung cancer cells)) (P08581 25-1390): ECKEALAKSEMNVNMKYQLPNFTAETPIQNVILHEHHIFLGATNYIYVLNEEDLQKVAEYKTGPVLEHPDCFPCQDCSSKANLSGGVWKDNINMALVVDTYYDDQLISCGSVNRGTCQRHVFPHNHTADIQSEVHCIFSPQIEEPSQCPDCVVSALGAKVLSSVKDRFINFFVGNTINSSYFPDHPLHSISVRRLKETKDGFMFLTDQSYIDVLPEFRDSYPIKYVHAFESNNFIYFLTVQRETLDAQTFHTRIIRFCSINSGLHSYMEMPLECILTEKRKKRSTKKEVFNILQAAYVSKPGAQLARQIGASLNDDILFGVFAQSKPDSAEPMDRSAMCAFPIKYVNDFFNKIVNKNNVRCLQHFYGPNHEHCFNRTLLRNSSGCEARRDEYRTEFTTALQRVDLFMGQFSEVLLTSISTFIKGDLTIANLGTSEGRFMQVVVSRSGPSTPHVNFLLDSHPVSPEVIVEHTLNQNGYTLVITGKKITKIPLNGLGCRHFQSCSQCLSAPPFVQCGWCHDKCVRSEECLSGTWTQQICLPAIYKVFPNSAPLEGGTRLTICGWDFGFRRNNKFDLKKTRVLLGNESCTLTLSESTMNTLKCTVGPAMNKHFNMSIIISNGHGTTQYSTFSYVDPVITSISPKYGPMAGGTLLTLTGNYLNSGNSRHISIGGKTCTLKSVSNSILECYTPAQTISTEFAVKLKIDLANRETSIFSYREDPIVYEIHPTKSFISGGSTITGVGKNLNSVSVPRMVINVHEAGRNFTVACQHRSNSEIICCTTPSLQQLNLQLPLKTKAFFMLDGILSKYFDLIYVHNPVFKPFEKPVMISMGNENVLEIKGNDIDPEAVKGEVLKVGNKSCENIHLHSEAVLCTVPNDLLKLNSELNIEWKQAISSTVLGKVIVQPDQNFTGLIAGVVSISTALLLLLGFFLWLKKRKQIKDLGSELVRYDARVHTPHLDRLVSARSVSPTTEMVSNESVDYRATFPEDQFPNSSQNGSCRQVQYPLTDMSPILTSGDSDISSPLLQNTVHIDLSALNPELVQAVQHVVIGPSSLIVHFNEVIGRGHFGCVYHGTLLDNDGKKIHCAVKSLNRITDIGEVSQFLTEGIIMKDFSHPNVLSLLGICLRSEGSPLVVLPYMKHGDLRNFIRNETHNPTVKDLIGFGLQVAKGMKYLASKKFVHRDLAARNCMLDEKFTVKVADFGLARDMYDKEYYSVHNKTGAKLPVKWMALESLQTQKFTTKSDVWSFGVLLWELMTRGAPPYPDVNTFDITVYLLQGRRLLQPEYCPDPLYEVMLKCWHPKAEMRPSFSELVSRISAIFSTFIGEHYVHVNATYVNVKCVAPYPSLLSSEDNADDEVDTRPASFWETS

On to “TGGATGGTAGCTCGGTCGGGGTGGGTGGGTTGGCAAGTCT / GGTGTCACAGGCGGGACCCCCGACCGA / GTCCCGCCTGTGACACCTCCCGCCTGTGACATGCATTTTTTTTCCCGCCTGTGACATGCATTGTCCCGCCTGTGACACC / CAACCCACCCGGTGTCACAGGCGGGAC [NT-Ch2-Apt (DNA nanotweezer)]”, for which the binding signal (fold (A549 / HeLa fluorescence)) turned out to be 2.5.
